# From IntAct's records for PubMed 27927196
# B1: Lipopolysaccharide-induced tumor necrosis factor-alpha factor (Homo sapiens), Q99732 (parent)
# chain: MSVPGPYQAATGPSSAPSAPPSYEETVAVNSYYPTPPAPMPGPTTGLVTGPDGKGMNPPSYYTQPAPIPNNNPITVQTVYVQHPITFLDRPIQMCCPSCNKMIVSQLSYNAGALTWLSCGSLCLLGCIAGCCFIPFCVDALQDVDHYCPNCRALLGTYKRL
# Variants of: B1
# Details: with nedd4_human NEDD4, P46934
# nedd4_human NEDD4, P46934, sequence (P46934 whole entry): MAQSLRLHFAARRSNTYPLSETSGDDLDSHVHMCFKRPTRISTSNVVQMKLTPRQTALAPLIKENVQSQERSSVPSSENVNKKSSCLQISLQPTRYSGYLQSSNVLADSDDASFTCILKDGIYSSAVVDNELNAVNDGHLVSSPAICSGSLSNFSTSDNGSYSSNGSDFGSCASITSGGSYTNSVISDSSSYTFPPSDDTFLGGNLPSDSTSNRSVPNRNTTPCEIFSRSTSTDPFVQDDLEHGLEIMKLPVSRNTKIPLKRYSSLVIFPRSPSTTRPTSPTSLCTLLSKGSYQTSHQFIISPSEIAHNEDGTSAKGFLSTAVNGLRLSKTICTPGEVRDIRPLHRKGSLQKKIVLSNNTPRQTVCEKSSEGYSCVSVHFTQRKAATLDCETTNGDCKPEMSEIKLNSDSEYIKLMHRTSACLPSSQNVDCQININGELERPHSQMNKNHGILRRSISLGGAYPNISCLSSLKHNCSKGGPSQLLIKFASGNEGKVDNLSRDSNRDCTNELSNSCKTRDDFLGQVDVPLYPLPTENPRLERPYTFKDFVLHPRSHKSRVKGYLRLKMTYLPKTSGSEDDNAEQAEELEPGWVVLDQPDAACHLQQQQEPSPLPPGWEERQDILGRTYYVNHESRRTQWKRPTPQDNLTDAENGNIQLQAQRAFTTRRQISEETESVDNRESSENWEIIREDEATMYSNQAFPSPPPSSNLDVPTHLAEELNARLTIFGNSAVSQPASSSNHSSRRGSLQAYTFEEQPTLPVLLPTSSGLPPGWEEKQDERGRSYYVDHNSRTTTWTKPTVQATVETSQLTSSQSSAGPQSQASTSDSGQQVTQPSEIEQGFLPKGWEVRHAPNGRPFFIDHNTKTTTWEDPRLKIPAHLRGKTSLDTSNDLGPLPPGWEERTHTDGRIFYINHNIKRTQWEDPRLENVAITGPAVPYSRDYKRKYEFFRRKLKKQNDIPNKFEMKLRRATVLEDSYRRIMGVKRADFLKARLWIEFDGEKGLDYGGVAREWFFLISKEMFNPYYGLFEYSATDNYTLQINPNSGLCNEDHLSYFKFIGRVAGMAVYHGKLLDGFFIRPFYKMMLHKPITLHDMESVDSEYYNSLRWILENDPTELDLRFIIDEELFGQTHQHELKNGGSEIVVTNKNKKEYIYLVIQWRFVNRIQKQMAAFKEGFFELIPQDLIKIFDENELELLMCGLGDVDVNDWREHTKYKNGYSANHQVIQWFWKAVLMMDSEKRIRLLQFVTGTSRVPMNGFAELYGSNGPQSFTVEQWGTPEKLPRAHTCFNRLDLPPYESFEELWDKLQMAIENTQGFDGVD
row,Variant,effect of a mutation on the interaction
1,Y23A;Y61A,disrupting interaction strength
2,Y61A,with no effect
3,Y23A,disrupting interaction strength
